The source of these data is article PMC10893412, “Genetic and Biochemical Characterization of AXC-2 from Achromobacter ruhlandii” (Pathogens, 2024).

Common to all, as to assay: purified protein
Common to all, as to conditions: 25 mM sodium phosphate pH 7.5, 25 °C

Series [1] has as its system CC1=C(C(=O)O)N2C(=O)[C@@H](NC(=O)[C@H](N)c3ccccc3)[C@H]2SC1.
The test system of series [2] is O=C(Cc1cccs1)N[C@@H]1C(=O)N2C(C(=O)O)=C(/C=C/c3ccc([N+](=O)[O-])cc3[N+](=O)[O-])CS[C@H]12. Type of series: biochemical, Achromobacter ruhlandii. From the text:
(§1) UV/Vis spectrophotometric hydrolysis, steady state on AXC-2

The subject of series [3] is CC1(C)S[C@@H]2[C@H](NC(=O)[C@H](N)c3ccccc3)C(=O)N2[C@H]1C(=O)O. The format is biochemical, Achromobacter ruhlandii.
From the text: as §1

Series [4] relates to CO/N=C(\C(=O)N[C@@H]1C(=O)N2C(C(=O)O)=C(CSc3nc(=O)c(=O)[nH]n3C)CS[C@H]12)c1csc(N)n1. The format is biochemical, Achromobacter ruhlandii.
From the text: as §1

The subject of series [5] is CC1(C)S[C@@H]2[C@H](NC(=O)Cc3ccccc3)C(=O)N2[C@H]1C(=O)O. Type of series: biochemical, Achromobacter ruhlandii.
From the text: as §1

In series [6] the test system is C[C@@H](O)[C@H]1C(=O)N2C(C(=O)O)=C(SCCN=CN)C[C@H]12. Type of series: biochemical, Achromobacter ruhlandii.
From the text: as §1

The subject of series [7] is C[C@@H](O)[C@H]1C(=O)N2C(C(=O)O)=C(S[C@@H]3CN[C@H](C(=O)N(C)C)C3)[C@H](C)[C@H]12. The format is biochemical, Achromobacter ruhlandii.
From the text: as §1

The test system of series [8] is CO/N=C(\C(=O)N[C@@H]1C(=O)N2C(C(=O)[O-])=C(C[N+]3(C)CCCC3)CS[C@H]12)c1csc(N)n1. Type of series: biochemical, Achromobacter ruhlandii.
From the text: as §1

For AXC-2 (Achromobacter ruhlandii), the Michaelis-Menten constant (Km) in series [1] came out at 74 ± 14 µM; in series [2], 202 ± 24 µM; in series [3], 344 ± 14 µM; in series [4], 59 ± 6 µM; in series [5] it was 1297 ± 409 µM; in series [6] it was 6.3 ± 0.8 µM. The results for the Km in series [7] and in series [8] were 8 ± 1 µM and 872 ± 254 µM, respectively. Moreover, the turnover number (kcat) in series [1] was 16 s⁻¹; in series [2], 40 ± 3 s⁻¹; in series [3] it was 62 ± 5 s⁻¹; in series [4], 5.5 ± 0.3 s⁻¹; in series [5], 125 ± 28 s⁻¹; in series [6], 0.0364 ± 0.0009 s⁻¹. The results for the turnover number (kcat) in series [7] and in series [8] were 0.051 ± 0.002 s⁻¹ and 0.29 ± 0.07 s⁻¹, respectively. Also, the kcat/Km in series [1] amounted to 220000 M⁻¹ s⁻¹; in series [2] it was 200000 ± 40000 M⁻¹ s⁻¹; in series [3], 180000 ± 20000 M⁻¹ s⁻¹; in series [4], 90000 ± 10000 M⁻¹ s⁻¹; in series [5], 100000 ± 50000 M⁻¹ s⁻¹; in series [6], 5800 ± 900 M⁻¹ s⁻¹. The catalytic efficiency (kcat/Km) in series [7] worked out at 7000 ± 1000 M⁻¹ s⁻¹; in series [8], 300 ± 100 M⁻¹ s⁻¹.
